Measurements published in patent US20120177639A1 (Sanofi, published 2012).

T1: fibrils of IAPP (UniProt P10997 34-70)
T1 construct: Insoluble fibrils formed by 72 h at 37 °C; also called Islet Amyloid Polypeptide
T1 peptide (looked up): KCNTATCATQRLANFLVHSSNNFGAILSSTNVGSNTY

B1: humanized anti-peptide Aβ antibody VH1VL1 (LP09027) (antibody, human IgG4 S228P, kappa, V domains shown)
VH: EVQLQQSGPEVVKPGVSVKISCKGSGYTFTDYAMHWVKQSPGKSLEWIGVISTKYGKTNYNPSFQGQATMTVDKSSSTAYMELASLKASDSAIYYCARGDDGYSWGQGTSVTVSS
VL: EIVMTQTPLSLPVSLGDRASISCRSGQSLVHSNGNTYLHWYLQKPGQSPKLLIYTVSNRFSGVPDRFSGSGSGSDFTLTISRVEAEDLGVYFCSQNTFVPWTFGGGTKLEIKR
notes: Humanized from murine antibody 13C3; Made in FreeStyle 293-F cells; hetero-tetramer of 150 kDa; also called 13C3-VH1VL1; Antibody 1 VH1VL1

Columns and labels:
fibrils of IAPP = target: T1, fibrils of IAPP; test: ELISA on coated fibrils (IAPP at 0.5 µg/ml)
Description: 50 μl of fibrils of Aβ1-42 at 1 μg/ml and IAPP at 0.5 μg/ml are deposited in each well of a microtitration plate. The ELISA protocol is applied using serial dilutions of the humanized antibody starting from 10 μg/ml.

[1] = target: B1; test: competitive ELISA, antibody 0.02 µg/ml pre-incubated with the peptide, free antibody read on coated Aβ1-42
Description: The antibody/antigen mixture is then deposited in each well and the microtitration plate is incubated for 1 h at room temperature. The free, uncomplexed antibody is determined according to the same ELISA protocol as described previously.

| Binder | binding result (fibrils of IAPP) | binding result [1] |
| --- | --- | --- |
| B1 | no binding | – |
| DAEFRHDSGYEVHHQK (peptide, UniProt P05067 672-687, looked up, range 1-16) [peptide Aβ1-16] | – | no binding |
| GSNKGAIIGLM (peptide, UniProt P05067 696-706, looked up, range 25-35) [peptide Aβ25-35] | – | no binding |
